# From paper PMC3505452 (Science (New York, N.Y.), 2012)
# T1: UVR8 (UV … LOCUS 8), recombinant Arabidopsis, full-length wild type (Arabidopsis), Q9FN03
# T1 chain: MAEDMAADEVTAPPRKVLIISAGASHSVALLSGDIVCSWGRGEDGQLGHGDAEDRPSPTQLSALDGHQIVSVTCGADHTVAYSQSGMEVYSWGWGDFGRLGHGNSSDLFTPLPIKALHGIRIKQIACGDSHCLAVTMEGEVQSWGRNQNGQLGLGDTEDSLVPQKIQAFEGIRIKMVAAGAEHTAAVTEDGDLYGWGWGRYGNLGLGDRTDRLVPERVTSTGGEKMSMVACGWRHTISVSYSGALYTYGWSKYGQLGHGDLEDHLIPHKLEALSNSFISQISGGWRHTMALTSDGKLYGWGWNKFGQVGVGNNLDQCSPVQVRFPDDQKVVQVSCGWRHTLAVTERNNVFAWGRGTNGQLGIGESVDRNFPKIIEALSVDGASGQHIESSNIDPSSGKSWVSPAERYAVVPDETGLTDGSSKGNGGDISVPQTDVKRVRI
# T2: UVR8^W285A (Arabidopsis), Q9FN03
# T2 chain: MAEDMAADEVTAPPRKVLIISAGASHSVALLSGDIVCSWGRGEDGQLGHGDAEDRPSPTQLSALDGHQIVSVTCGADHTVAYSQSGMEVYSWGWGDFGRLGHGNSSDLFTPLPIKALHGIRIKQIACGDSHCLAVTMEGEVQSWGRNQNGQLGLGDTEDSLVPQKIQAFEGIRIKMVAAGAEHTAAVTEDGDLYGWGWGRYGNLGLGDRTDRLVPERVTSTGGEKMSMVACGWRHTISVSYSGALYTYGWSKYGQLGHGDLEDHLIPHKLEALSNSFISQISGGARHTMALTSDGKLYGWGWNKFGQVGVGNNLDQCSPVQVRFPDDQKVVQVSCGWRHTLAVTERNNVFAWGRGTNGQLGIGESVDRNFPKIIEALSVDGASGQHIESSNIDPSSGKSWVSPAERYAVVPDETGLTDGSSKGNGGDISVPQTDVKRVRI
# T3: UVR8^W233F (Arabidopsis), Q9FN03
# T3 chain: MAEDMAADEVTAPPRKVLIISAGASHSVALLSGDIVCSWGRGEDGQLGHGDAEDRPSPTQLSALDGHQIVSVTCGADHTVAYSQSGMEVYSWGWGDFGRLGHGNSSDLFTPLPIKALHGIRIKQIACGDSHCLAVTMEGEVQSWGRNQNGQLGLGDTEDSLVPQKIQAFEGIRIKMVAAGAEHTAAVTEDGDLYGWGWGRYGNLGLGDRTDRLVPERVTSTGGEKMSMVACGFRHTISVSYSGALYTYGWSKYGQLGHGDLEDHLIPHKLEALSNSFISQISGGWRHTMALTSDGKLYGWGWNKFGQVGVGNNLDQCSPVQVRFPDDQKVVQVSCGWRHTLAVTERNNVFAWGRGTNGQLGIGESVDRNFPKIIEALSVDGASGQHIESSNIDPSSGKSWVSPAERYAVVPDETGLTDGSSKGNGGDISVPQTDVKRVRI
# Tests used:
# [1] = target: UVR8^R146A (Arabidopsis) (UniProt Q9FN03); experiment: SEC
# [2] = target: UVR8^R286A (Arabidopsis) (UniProt Q9FN03); experiment: SEC
# [3] = target: T1, UVR8 (UV … LOCUS 8), recombinant …; experiment: SEC; conditions: remark: other sources report otherwise
# [4] = target: T1, UVR8 (UV … LOCUS 8), recombinant …; experiment: SEC-MALS; conditions: remark: other sources report otherwise
# [5] = target: T1, UVR8 (UV … LOCUS 8), recombinant …; experiment: SDS-PAGE without sample boiling; conditions: remark: other sources report otherwise
# [6] = target: T1, UVR8 (UV … LOCUS 8), recombinant …; experiment: SAXS; conditions: remark: other sources report otherwise
# [7] = target: T2, UVR8^W285A (Arabidopsis), Q9FN03; experiment: SAXS; conditions: remark: other sources report otherwise
# [8] = target: T3, UVR8^W233F (Arabidopsis), Q9FN03; experiment: SEC; conditions: remark: other sources report otherwise
# [9] = target: T3, UVR8^W233F (Arabidopsis), Q9FN03; experiment: SEC; conditions: remark: other sources report otherwise
# [10] = target: the molecule itself; experiment: SEC
# [11] = target: the molecule itself; experiment: SAXS
molecule,measurement,setting,value
UVR8^R146A (from UniProt Q9FN03 1-440) (natural protein),stoichiometry N,[1],2
UVR8^R286A (from UniProt Q9FN03 1-440) (natural protein),stoichiometry N,[2],2
"UVR8 (UV … LOCUS 8), recombinant Arabidopsis, full-length wild type, Q9FN03 1-440 (natural protein) MAEDMAADEVTAPPRKVLIISAGASHSVALLSGDIVCSWGRGEDGQLGHGDAEDRPSPTQLSALDGHQIVSVTCGADHTVAYSQSGMEVYSWGWGDFGRLGHGNSSDLFTPLPIKALHGIRIKQIACGDSHCLAVTMEGEVQSWGRNQNGQLGLGDTEDSLVPQKIQAFEGIRIKMVAAGAEHTAAVTEDGDLYGWGWGRYGNLGLGDRTDRLVPERVTSTGGEKMSMVACGWRHTISVSYSGALYTYGWSKYGQLGHGDLEDHLIPHKLEALSNSFISQISGGWRHTMALTSDGKLYGWGWNKFGQVGVGNNLDQCSPVQVRFPDDQKVVQVSCGWRHTLAVTERNNVFAWGRGTNGQLGIGESVDRNFPKIIEALSVDGASGQHIESSNIDPSSGKSWVSPAERYAVVPDETGLTDGSSKGNGGDISVPQTDVKRVRI",stoichiometry N,[3],2
same,stoichiometry N,[4],2
same,stoichiometry N,[5],2
same,stoichiometry N,[6],2
"UVR8^W285A, Q9FN03 1-440 (natural protein) MAEDMAADEVTAPPRKVLIISAGASHSVALLSGDIVCSWGRGEDGQLGHGDAEDRPSPTQLSALDGHQIVSVTCGADHTVAYSQSGMEVYSWGWGDFGRLGHGNSSDLFTPLPIKALHGIRIKQIACGDSHCLAVTMEGEVQSWGRNQNGQLGLGDTEDSLVPQKIQAFEGIRIKMVAAGAEHTAAVTEDGDLYGWGWGRYGNLGLGDRTDRLVPERVTSTGGEKMSMVACGWRHTISVSYSGALYTYGWSKYGQLGHGDLEDHLIPHKLEALSNSFISQISGGARHTMALTSDGKLYGWGWNKFGQVGVGNNLDQCSPVQVRFPDDQKVVQVSCGWRHTLAVTERNNVFAWGRGTNGQLGIGESVDRNFPKIIEALSVDGASGQHIESSNIDPSSGKSWVSPAERYAVVPDETGLTDGSSKGNGGDISVPQTDVKRVRI",stoichiometry N,[7],2
"UVR8^W233F, Q9FN03 1-440 (natural protein) MAEDMAADEVTAPPRKVLIISAGASHSVALLSGDIVCSWGRGEDGQLGHGDAEDRPSPTQLSALDGHQIVSVTCGADHTVAYSQSGMEVYSWGWGDFGRLGHGNSSDLFTPLPIKALHGIRIKQIACGDSHCLAVTMEGEVQSWGRNQNGQLGLGDTEDSLVPQKIQAFEGIRIKMVAAGAEHTAAVTEDGDLYGWGWGRYGNLGLGDRTDRLVPERVTSTGGEKMSMVACGFRHTISVSYSGALYTYGWSKYGQLGHGDLEDHLIPHKLEALSNSFISQISGGWRHTMALTSDGKLYGWGWNKFGQVGVGNNLDQCSPVQVRFPDDQKVVQVSCGWRHTLAVTERNNVFAWGRGTNGQLGIGESVDRNFPKIIEALSVDGASGQHIESSNIDPSSGKSWVSPAERYAVVPDETGLTDGSSKGNGGDISVPQTDVKRVRI",stoichiometry N,[8],2
same,stoichiometry N,[9],2
"UVR8^W285F (natural protein, Arabidopsis, UniProt Q9FN03 1-440, looked up) MAEDMAADEVTAPPRKVLIISAGASHSVALLSGDIVCSWGRGEDGQLGHGDAEDRPSPTQLSALDGHQIVSVTCGADHTVAYSQSGMEVYSWGWGDFGRLGHGNSSDLFTPLPIKALHGIRIKQIACGDSHCLAVTMEGEVQSWGRNQNGQLGLGDTEDSLVPQKIQAFEGIRIKMVAAGAEHTAAVTEDGDLYGWGWGRYGNLGLGDRTDRLVPERVTSTGGEKMSMVACGWRHTISVSYSGALYTYGWSKYGQLGHGDLEDHLIPHKLEALSNSFISQISGGFRHTMALTSDGKLYGWGWNKFGQVGVGNNLDQCSPVQVRFPDDQKVVQVSCGWRHTLAVTERNNVFAWGRGTNGQLGIGESVDRNFPKIIEALSVDGASGQHIESSNIDPSSGKSWVSPAERYAVVPDETGLTDGSSKGNGGDISVPQTDVKRVRI",stoichiometry N,[10],2
"trypsin-treated UVR8 (crystallographic construct) (domain or fragment, Arabidopsis) MAEDMAADEVTAPPRKVLIISAGASHSVALLSGDIVCSWGRGEDGQLGHGDAEDRPSPTQLSALDGHQIVSVTCGADHTVAYSQSGMEVYSWGWGDFGRLGHGNSSDLFTPLPIKALHGIRIKQIACGDSHCLAVTMEGEVQSWGRNQNGQLGLGDTEDSLVPQKIQAFEGIRIKMVAAGAEHTAAVTEDGDLYGWGWGRYGNLGLGDRTDRLVPERVTSTGGEKMSMVACGWRHTISVSYSGALYTYGWSKYGQLGHGDLEDHLIPHKLEALSNSFISQISGGWRHTMALTSDGKLYGWGWNKFGQVGVGNNLDQCSPVQVRFPDDQKVVQVSCGWRHTLAVTERNNVFAWGRGTNGQLGIGESVDRNFPKIIEALSVDGASGQHIESSNIDPSSGKSWVSPAE",stoichiometry N,[11],2
